Assays:
[1] = tested on: HeLa Kyoto; experiment: melting temperature (median over replicates), in situ; higher = more thermally stable
[2] = tested on: HeLa Kyoto; experiment: thermal stability score vs G1/S (z-score of summed log2 fold changes over temperatures); higher = more thermally stable than in G1/S
[3] = tested on: HeLa Kyoto; experiment: solubility in G1/S (NP-40 vs SDS abundance) (log2 ratio); higher = more soluble; conditions: cell cycle stage: G1/S
[4] = tested on: HeLa Kyoto; experiment: solubility change mitosis vs G1/S (difference of NP-40 vs SDS log2 ratios) (log2 ratio difference); higher = more soluble in mitosis
[5] = cell cycle stage: early G1 (4.5 h after nocodazole release)
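Throughout, for melting temperature (median over replicates), in situ: HeLa Kyoto cells synchronized by double thymidine or nocodazole block, proteins quantified by TMT10plex mass spectrometry, three independent biological replicates.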
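Throughout, for solubility change mitosis vs G1/S (difference of NP-40 vs SDS log2 ratios): synchronized HeLa Kyoto cells (double thymidine block for G1/S, nocodazole release for mitosis), protein amounts in NP-40 versus SDS lysates quantified by mass spectrometry, three biological replicates.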
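Throughout, for solubility in G1/S (NP-40 vs SDS abundance): HeLa Kyoto cells arrested at G1/S by double thymidine block, proteins quantified by TMT10plex mass spectrometry in mild NP-40 versus SDS extracts, three biological replicates.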
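Throughout, for thermal stability score vs G1/S (z-score of summed log2 fold changes over temperatures): synchronized HeLa Kyoto cells, proteins quantified by TMT10plex mass spectrometry, three biological replicates, mitosis taken 0.5 h after nocodazole release, G1/S directly after double thymidine block.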

Sequence of UBE2V2 (chain, as listed by the source): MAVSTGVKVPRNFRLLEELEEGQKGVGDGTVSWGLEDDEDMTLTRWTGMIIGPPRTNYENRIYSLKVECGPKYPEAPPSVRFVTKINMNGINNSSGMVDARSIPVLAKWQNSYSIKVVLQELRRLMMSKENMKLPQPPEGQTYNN

Substance | melting temperature ([1]; cell cycle stage: G1/S) | melting temperature ([1]; cell cycle stage: mitosis) | thermal stability score [2, 5] | thermal stability score ([2]; cell cycle stage: mitosis) | solubility in G1/S (log2) [3] | solubility change mitosis (log2) [4]
MAEFLDDQETRLCDNCKKEIPVFNFTIHEIHCQRNIGMCPTCKEPFPKSDMETHMAAEHCQVTCKCNKKLEKRLLKKHEETECPLRLAVCQHCDLELSILKLKEHEDYCGARTELCGNCGRNVLVKDLKTHPEVCGREGEEKRNEVAIPPNAYDESWGQDGIWIASQLLRQIEALDPPMRLPRRPLRAFESDVFHNRTTNQRNITAQVSIQNNLFEEQERQERNRGQQPPKEGGEESANLDFMLALSLQNEGQASSVAEQDFWRAVCEADQSHGGPRSLSDIKGAADEIMLPCEFCEELYPEELLIDHQTSCNPSRALPSLNTGSSSPRGVEEPDVIFQNFLQQAASNQLDSLMGLSNSHPVEESIIIPCEFCGVQLEEEVLFHHQDQCDQRPATATNHVTEGIPRLDSQPQETSPELPRRRVRHQGDLSSGYLDDTKQETANGPTSCLPPSRPINNMTATYNQLSRSTSGPRPGCQPSSPCVPKLSNSDSQDIQGRNRDSQNGAIAPGHVSVIRPPQNLYPENIVPSFSPGPSGRYGASGRSEGGRNSRVTPAAANYRSRTAKAKPSKQQGAGDAEEEEEE [TRAFD1] | 53.8 °C | 53.9 °C | -1.71 | -2.27 | 0.132 | -0.0897
MSAPSEEEEYARLVMEAQPEWLRAEVKRLSHELAETTREKIQAAEYGLAVLEEKHQLKLQFEELEVDYEAIRSEMEQLKEAFGQAHTNHKKVAADGESREESLIQESASKEQYYVRKVLELQTELKQLRNVLTNTQSENERLASVAQELKEINQNVEIQRGRLRDDIKEYKFREARLLQDYSELEEENISLQKQVSVLRQNQVEFEGLKHEIKRLEEETEYLNSQLEDAIRLKEISERQLEEALETLKTEREQKNSLRKELSHYMSINDSFYTSHLHVSLDGLKFSDDAAEPNNDAEALVNGFEHGGLAKLPLDNKTSTPKKEGLAPPSPSLVSDLLSELNISEIQKLKQQLMQMEREKAGLLATLQDTQKQLEHTRGSLSEQQEKVTRLTENLSALRRLQASKERQTALDNEKDRDSHEDGDYYEVDINGPEILACKYHVAVAEAGELREQLKALRSTHEAREAQHAEEKGRYEAEGQALTEKVSLLEKASRQDRELLARLEKELKKVSDVAGETQGSLSVAQDELVTFSEELANLYHHVCMCNNETPNRVMLDYYREGQGGAGRTSPGGRTSPEARGRRSPILLPKGLLAPEAGRADGGTGDSSPSPGSSLPSPLSDPRREPMNIYNLIAIIRDQIKHLQAAVDRTTELSRQRIASQELGPAVDKDKEALMEEILKLKSLLSTKREQITTLRTVLKANKQTAEVALANLKSKYENEKAMVTETMMKLRNELKALKEDAATFSSLRAMFATRCDEYITQLDEMQRQLAAAEDEKKTLNSLLRMAIQQKLALTQRLELLELDHEQTRRGRAKAAPKTKPATPSL [BICD2] | 49.7 °C | 49.1 °C | -0.115 | 0.199 | 0.628 | 0.0849
UBE2V2 | 52.5 °C | 52.9 °C | 0.348 | -0.815 | 0.464 | 0.122
MLCGRPRSSSDNRNFLRERAGLSSAAVQTRIGNSAASRRSPAARPPVPAPPALPRGRPGTEGSTSLSAPAVLVVAVAVVVVVVSAVAWAMANYIHVPPGSPEVPKLNVTVQDQEEHRCREGALSLLQHLRPHWDPQEVTLQLFTDGITNKLIGCYVGNTMEDVVLVRIYGNKTELLVDRDEEVKSFRVLQAHGCAPQLYCTFNNGLCYEFIQGEALDPKHVCNPAIFRLIARQLAKIHAIHAHNGWIPKSNLWLKMGKYFSLIPTGFADEDINKRFLSDIPSSQILQEEMTWMKEILSNLGSPVVLCHNDLLCKNIIYNEKQGDVQFIDYEYSGYNYLAYDIGNHFNEFAGVSDVDYSLYPDRELQSQWLRAYLEAYKEFKGFGTEVTEKEVEILFIQVNQFALASHFFWGLWALIQAKYSTIEFDFLGYAIVRFNQYFKMKPEVTALKVPE [ETNK1] | 53 °C | 51.9 °C | -1.17 | -1.91 | -0.0579 | -0.288
MEVKPPPGRPQPDSGRRRRRRGEEGHDPKEPEQLRKLFIGGLSFETTDDSLREHFEKWGTLTDCVVMRDPQTKRSRGFGFVTYSCVEEVDAAMCARPHKVDGRVVEPKRAVSREDSVKPGAHLTVKKIFVGGIKEDTEEYNLRDYFEKYGKIETIEVMEDRQSGKKRGFAFVTFDDHDTVDKIVVQKYHTINGHNCEVKKALSKQEMQSAGSQRGRGGGSGNFMGRGGNFGGGGGNFGRGGNFGGRGGYGGGGGGSRGSYGGGDGGYNGFGGDGGNYGGGPGYSSRGGYGGGGPGYGNQGGGYGGGGGYDGYNEGGNFGGGNYGGGGNYNDFGNYSGQQQSNYGPMKGGSFGGRSSGSPYGGGYGSGGGSGGYGSRRF [HNRNPA3] | 47.8 °C | 49.3 °C | 2.6 | 4.71 | -0.252 | 0.411
MSSNSFPYNEQSGGGEATELGQEATSTISPSGAFGLFSSDLKKNEDLKQMLESNKDSAKLDAMKRIVGMIAKGKNASELFPAVVKNVASKNIEIKKLVYVYLVRYAEEQQDLALLSISTFQRALKDPNQLIRASALRVLSSIRVPIIVPIMMLAIKEASADLSPYVRKNAAHAIQKLYSLDPEQKEMLIEVIEKLLKDKSTLVAGSVVMAFEEVCPDRIDLIHKNYRKLCNLLVDVEEWGQVVIIHMLTRYARTQFVSPWKEGDELEDNGKNFYESDDDQKEKTDKKKKPYTMDPDHRLLIRNTKPLLQSRNAAVVMAVAQLYWHISPKSEAGIISKSLVRLLRSNREVQYIVLQNIATMSIQRKGMFEPYLKSFYVRSTDPTMIKTLKLEILTNLANEANISTLLREFQTYVKSQDKQFAAATIQTIGRCATNILEVTDTCLNGLVCLLSNRDEIVVAESVVVIKKLLQMQPAQHGEIIKHMAKLLDSITVPVARASILWLIGENCERVPKIAPDVLRKMAKSFTSEDDLVKLQILNLGAKLYLTNSKQTKLLTQYILNLGKYDQNYDIRDRTRFIRQLIVPNVKSGALSKYAKKIFLAQKPAPLLESPFKDRDHFQLGTLSHTLNIKATGYLELSNWPEVAPDPSVRNVEVIELAKEWTPAGKAKQENSAKKFYSESEEEEDSSDSSSDSESESGSESGEQGESGEEGDSNEDSSEDSSSEQDSESGRESGLENKRTAKRNSKAKGKSDSEDGEKENEKSKTSDSSNDESSSIEDSSSDSESESEPESESESRRVTKEKEKKTKQDRTPLTKDVSLLDLDDFNPVSTPVALPTPALSPSLMADLEGLHLSTSSSVISVSTPAFVPTKTHVLLHRMSGKGLAAHYFFPRQPCIFGDKMVSIQITLNNTTDRKIENIHIGEKKLPIGMKMHVFNPIDSLEPEGSITVSMGIDFCDSTQTASFQLCTKDDCFNVNIQPPVGELLLPVAMSEKDFKKEQGVLTGMNETSAVIIAAPQNFTPSVIFQKVVNVANVGAVPSGQDNIHRFAAKTVHSGSLMLVTVELKEGSTAQLIINTEKTVIGSVLLRELKPVLSQG [AP3B1] | 50.6 °C | 50 °C | -0.704 | -0.939 | -0.0793 | -0.0973
